For data set [1], the system named is NZBWF1 mice. Particulars: CYP 50 mg/kg IP every 10 days; Alperovich et al. 2007; cited from earlier work.
In data set [2] the test system is lupus-prone NZBWF1 mice. The experiment in a line: Kaplan-Meier survival in spontaneous SLE mouse model NZBWF1. To be noted: CYP 50 mg/kg IP once every 10 days. The data set is classed as in vivo. As to the method:
NZBWF1/J mice develop an autoimmune disease resembling human systemic lupus erythematosus. […] The animals were maintained under standard laboratory conditions, at 20-24° C. and 40-70% relative humidity, with 12-hour fluorescent light/12-hour dark cycle. They were feed standard diet and tap water ad libitum.
(§1) Both IP and SC administrations for C4BP(β−), CYP and PBS (150 μl/each) were performed with a 25-gauge needle during 30 s, after rinsing the skin with 70% ethanol.
(§2) The detailed administration schedule was as follows (Table 5):
(§3) One-way analysis of variance (ANOVA) with post hoc tests was performed to compare proteinuria throughout the follow up. Survival data were analyzed using Kaplan-Meier curves and long-rank test. P value<0.05 was considered significant. Data are expressed as mean±SEM.

The subject of data set [3] is NZBWF1 mice. The data set is classed as in vivo, mouse. Particulars: treatment weeks 24-36. As to the method: The animals were observed daily throughout the experimental period to check out any local and systemic reaction to the treatment, as well as other signs of illness and/or behavioral changes in order to obtain tolerance and toxicological information. Body weight was determined twice monthly from the beginning to the end of follow-up. Mice were placed in metabolic cages to collect 24 h urine specimens before the onset of treatment and monthly thereafter. Blood was obtained from the tail vein at monthly intervals.

In data set [4] the test system is lupus-prone NZBWF1 mice. The experiment in a line: Renal function (24 h proteinuria) in spontaneous SLE mouse model NZBWF1. It counts as in vivo. To be noted: CYP 50 mg/kg IP every 10 days, up to week 37. On the procedure:
Mice, Study Design and Follow Up
NZB/NZW F1 or NZBWF1/J (Charles-River), NZB/NZW F1 (Jackson, code 100008) are a hybrid cross between NZB/B1NJ (Jackson, code 000684) Female x NZW/LacJ (Jackson, code 001058) Male. NZBWF1/J mice develop an autoimmune disease resembling human systemic lupus erythematosus. The inventors used 58 females (30-35 g/each) aged 15 weeks for the study (4-5 animals per cage). The animals were maintained under standard laboratory conditions, at 20-24° C. and 40-70% relative humidity, with 12-hour fluorescent light/12-hour dark cycle. They were feed standard diet and tap water ad libitum. […]
Dose Selection and Administration.
The selection of the C4BP(β−) dose for in vivo administration was based in previous studies employing complement-related proteins in immune-inflammatory pathologies. Blom et al. (Blom et al. 2009. Ann. Rheum. Dis., 68:136-42) used the C4BP isoform lacking β chain in experimental collagen-induced arthritis (CIA) and collagen antibody-induced arthritis (CAIA) mice to investigate the influence of complement activity in the treatment of rheumatoid arthritis. These authors administered intraperitoneally C4BP (2 mg/mouse) using a multiple dose-regimen once every two days in preventive and therapeutic experiments. Thus, in the current study, C4BP(β−) was administered both intraperitoneally (IP) and subcutaneously (SC) into NZBWF1 mice for three months (between six and nine months of age).
Alperovich et al (Alperovich et al. 2007. Lupus, 16:18-24) administered cyclophosphamide (CYP) to NZBWF1 mice at 50 mg/kg IP every 10 days.
as §1, §2
Body weight was determined twice monthly from the beginning to the end of follow-up. Mice were placed in metabolic cages to collect 24 h urine specimens before the onset of treatment and monthly thereafter. Blood was obtained from the tail vein at monthly intervals.
Renal Function Analysis: Proteinuria
24 h urinary protein was determined by pyrogallol red (Olympum Autoanalyzer AU400, Hamburg, Germany) in the Veterinary Clinical Biochemistry Laboratory from Universitat Autonoma de Barcelona.
as §3

Data set [5] relates to Balb/c male mice, CAIA model. It counts as in vivo, mouse. From the text: Collagen-antibody induced arthritis (CAIA) is a simple mouse model of human rheumatoid arthritis (RA) induced by the systemic administration of a cocktail of monoclonal antibodies directed against conserved auto-antigenic collagen type II epitopes, followed by a single injection of lipopolysaccharide (LPS). CAIA is a useful model to study the effector inflammatory phase of arthritis without involving the priming phase of the immune response. The murine CAIA model shares several clinical, immunological and pathological features with RA. Therefore, this model is useful to study the pathogenic mechanisms involved in RA disease as well as for testing new therapies.
Balb/c male mice aged 7-8 weeks were supplied by Envigo. The animals were acclimated during 12 days. The animals were maintained in an environmentally controlled room with ventilation, temperature (22±2° C.), relative humidity (35-65%), and cycle light/dark (12 h/12 h). The animals were housed in groups of 3-5 animals/cage. The maintenance diet was supplied by Harlan Interfauna Ibérica, S. L. (“2014 Harlan Teklad Global Diets”) and they were feed diet and water ad libitum.
Plasmatic C4BP(β−) was supplied at a concentration of 6.2 mg/ml. C4BP(β−) solutions were prepared to the desired concentration 0.33 mg/ml (for 50 μg doses) by dilution with Dulbecco's phosphate-buffered saline (DPBS) of C4BP(β−) 6.2 mg/ml stock solution.
Two reference compounds were used: dexamethasone (Sigma, Ref. D1756) and Enbrel® (etanercept) (Pfizer, Ref. 655950).
Reference compound dexamethasone was dissolved in vehicle (0.1% Tween-80+99% carboxymethyl cellulose (CMC) (0.5% w/v) in water at a concentration of 0.1 mg/ml.
Enbrel® was prepared at 6 mg/ml in DPBS by dilution of 50 mg/mL stock solution.
Experimental Procedure Day 0: Arthritis Induction
On day 0, animals for experimental group C4BPd3 were randomly selected (n=8) and identified using tail code numbers and weighted.
Each mouse was sensitized by the administration of 2 mg anti-type II collagen antibodies cocktail (ArthritoMAB™ cocktail solution, 0.2 mL, i.v., day 0) in the caudal vein.
Day 3: LPS Synchronization
Animals were intraperitoneally administered with 0.1 mL of LPS solution (0.7 mg/ml, 70 μg/animal).
50 μg of C4BP(β−) were administered subcutaneously at day 3 to treatment group C4BPd3.
50 μg of C4BP(β−) were administered subcutaneously at day 5 to treatment group C4BPd3.
Day 5: Animal Distribution
On day 5 after sensitization, the rest of the animals developing clinical signs of arthritis (n=18) were evaluated and distributed in base of CAIA+incidence. Animals were homogeneously randomized (arthritis score) into the CAIA control group, dexamethasone (1 mg/kg at days 5-11, p.o.) and Enbrel®-treated groups (30 mg/kg at days 5-11, s.c.) (n=6). Animals were identified using tail code numbers and weighted.
Group 2 was not included in the distribution because of the previous test item administration.
The arthritis score was determined using the criteria of Table 9.
Treatment: • C4BPd3 group: 50 μg of C4BP(β−) were subcutaneously injected to animals on days 3 and 5. Volume: 0.150 mL. • Reference compound treatments and CAIA control groups (days 5-11): • Enbrel®: 30 mg/kg of Enbrel® was subcutaneously administered to Enbrel group from days 5 to 11. Volume: 5 mL/kg. • Dexamethasone: 1 mg/kg dexamethasone was orally administered to dexamethasone group from days 5 to 11. Volume: 10 mL/kg. • CAIA control group: 0.150 mL of DPBS was subcutaneously administered from days 5 to 11. Arthritis Monitoring:
Body weights were registered daily from days 0-12 in C4BPd3 and from days 5-12 in CAIA control, dexamethasone and Enbrel® groups. Arthritis scores were determined by the same observer in order to avoid observer bias.
The study was finished at day 12.
Animals were anesthetized with isoflurane. Ankles and wrists thickness were measured using a dial thickness gauge. Serum samples were collected and stored at −20° C. […]

Data set [6] deals with human monocyte-derived DCs. The experiment in a line: Immunomodulatory activity over human monocyte-derived DCs: CD83/CD86 surface expression by flow cytometry after LPS maturation. The data set is classed as cell-based. To be noted: FIG. 4. On the procedure:
In Vitro Functional Assessment of the Immunomodulatory Activity of Full-Length C4BP(β−) and C4BP(β−) Variants Over DCs
The inventors used for the in vitro study both C4BP(β+) (WT) and recombinant C4BP(β−) isoforms, and the above-referred mutants or variants: Mutant 1 and Mutant 2. C4BP(β+) isoforms refer to the major C4BP α7β1 plus the minor C4BP α6β1 isoforms (both in complex with ProS) purified from pooled human plasma.
RPMI 1640 was supplemented with 100 μg/ml of streptomycin, 100 IU/ml of penicillin, 2 mM L-glutamine (all from Invitrogen, Carlsbad, CA) and 10% heat-inactivated fetal bovine serum (Linus, Cultek, Spain) (complete medium), unless otherwise stated.
Peripheral blood mononuclear cells (PBMCs) were obtained from buffy coat preparations collected from healthy donors from the Blood and Tissue Bank (Barcelona, Spain) after Ficoll-Paque™ density centrifugation (GE Healthcare Bio-Sciences AB; Uppsala, Sweden). For surface phenotype determination, monocytes were plated at 1×10^6 cells/ml in 60 mm culture plates (Corning, Spain), in RPMI 1640 medium without serum, and allowed to adhere for 2 h at 37° C. in 5% CO2. The non-adherent cells were removed by washing in PBS.
Monocyte-derived DCs were generated supplementing the monocyte cultures with complete RPMI 1640 medium plus GM-CSF (800 UI/ml) and IL-4 (500 UI/ml) (both from Gentaur, Kampenhout, Belgium) at day 0 and day 3 of culture. For DC maturation, at day 5 iDCs were further stimulated for 48 h with 5 μg/ml LPS (Escherichia coli 055.B5, Sigma L2880, Copenhagen, Denmark).
Staining using the fluorescent dye 7-amino-actinomycin D (7-AAD) (BD Pharmigen) and flow cytometry analysis was employed to assess the viability status of C4BP-treated and untreated DCs.
Cell surface phenotypes were analyzed by flow cytometry using the following mAbs: FITC-conjugated anti-CD83 (HB15a) and PE-conjugated anti-CD86 (HA5.2B7) (all from Beckman-Coulter). The respective isotype controls FITC-conjugated anti-IgG2b (H2) and PE-conjugated anti-IgG2b (H2), were from the same commercial sources. After washing with PBS, cells were subsequently stained with 3 μl mAb/10^5 cells in 100 μl of FACS buffer (PBS containing 1% BSA and 0.1% sodium azide) for 20 min at room temperature. To exclude dead cells and debris, DCs were gated according to forward scatter (FSC) and side scatter (SSC) parameters. Stained cells were analyzed using a FACSCalibur (Becton Dickinson, Franklin Lakes, NJ) equipped with CellQuestPro software (Becton Dickinson).
In Vitro Functional Assessment of C4BP(β−) Immunomodulatory Activity Over DCs
The inventors used for the in vitro study both C4BP(+) and C4BP(β−) isoforms. C4BP(3+) isoforms refer to the major C4BP α7β1 plus the minor C4BP α6β1 isoforms (both in complex with ProS) purified from pooled human plasma, as previously described (Dahlbäck B. 1983. Biochem J., 209:847-56).

“Also recorded” adds a separate entry of the source. Where only a bound is given, the exact number is not on record here.

Data on 2 molecules can be found in patent US12006343B2, “C4BP-based compounds for treating immunological diseases” (FUNDACIO INSTITUT D'INVESTIGACIO BIOMEDICA DE BELLVITGE …, priority 2017, dated 2024).

As for `O=P1(N(CCCl)CCCl)NCCCO1` (centres unmarked) [CYP, Cyclophosphamide, reference compound], in the data set on NZBWF1 mice [1], the histological lesions entry is “arrested and reversed almost all histological lesions”; the “serum anti-DNA antibodies” value was “appropriately controlled”. The survival entry in the data set on lupus-prone NZBWF1 mice [2] is on record as “survived throughout the period of observation; also recorded: increased survival”. The “toxicity and behavioral changes” value with NZBWF1 mice [3] is given as “neither toxicity nor behavioral changes were observed”. Also, the development of proteinuria entry with lupus-prone NZBWF1 mice [4] was “prevented the development of proteinuria”.

B1: C4BP(β−): plasma-purified C4BP minor isoform lacking beta chain; C4BPd3 is the CAIA group given 50 μg sc at days 3 and 5 (protein, UniProt P04003 49-597, looked up)
C4b-binding protein alpha …: NCGPPPTLSFAAPMDITLTETRFKTGTTLKYTCLPGYVRSHSTQTLTCNSDGEWVYNTFCIYKRCRHPGELRNGQVEIKTDLSFGSQIEFSCSEGFFLIGSTTSRCEVQDRGVGWSHPLPQCEIVKCKPPPDIRNGRHSGEENFYAYGFSVTYSCDPRFSLLGHASISCTVENETIGVWRPSPPTCEKITCRKPDVSHGEMVSGFGPIYNYKDTIVFKCQKGFVLRGSSVIHCDADSKWNPSPPACEPNSCINLPDIPHASWETYPRPTKEDVYVVGTVLRYRCHPGYKPTTDEPTTVICQKNLRWTPYQGCEALCCPEPKLNNGEITQHRKSRPANHCVYFYGDEISFSCHETSRFSAICQGDGTWSPRTPSCGDICNFPPKIAHGHYKQSSSYSFFKEEIIYECDKGYILVGQAKLSCSYSHWSAPAPQCKALCRKPELVNGRLSVDKDQYVEPENVTIQCDSGYGVVGPQSITCSGNRTWYPEVPKCEWETPEGCEQVLTGKRLMQCLPNPEDVKMALEVYKLSLEIEQLELQRDSARQSTLDKEL
modifications: alpha-chain-only isoform, plasma-purified
With B1, the “protection lasting until day after the arthritis induction” value in data set [5] (50 μg sc at days 3 and 5) was no less than 12 days. The “inhibition of arthritis score vs. CAIA controls AUC” value in data set [5] (C4BP(β−) 50 μg sc days 3 and 5, dexamethasone 1 mg/kg po days 5-11) is 47%. Moreover, the ankle thickness in data set [5] (day 12, C4BP(β−) 50 μg sc d3 and d5, dexamethasone 1 mg/kg po d5-11, Enbrel 30 mg/kg sc d5-11) is 2.74±0.08 mm. Also, the “wrist thickness vs. CAIA control” value in data set [5] (day 12, regimens as Table 8) is given as “No changes”. The “body weight vs CAIA control group” value in data set [5] (mouse, in vivo) is recorded as “No remarkable differences”. For the same molecule, in data set [5] (regimens as Table 8, vs CAIA control group), the “arthritis scores / progression of arthritis” value was “significantly ameliorated the progression of arthritis”. Also, in the data set with NZBWF1 mice [3], the “toxicity and behavioral changes” value is on record as “neither toxicity nor behavioral changes were observed”. Moreover, the “semi-mature, anti-inflammatory phenotype conferred to LPS-matured MoDCs (immunomodulatory activity)” value in data set [6] (MoDCs pre-incubated with 5 μg/ml protein, LPS challenge) is “able to confer an analogous semi-mature, anti-inflammatory phenotype”. Further, the “CD83 and CD86 surface marker expression” value in data set [6] (human MoDCs, 5 μg/ml C4BP isoform, LPS 5 μg/ml) was “restrain similarly CD83 and CD86 surface marker expression”.
